Data on two molecules can be found in PMC2659767, “Tracking Membrane Protein Association in Model Membranes” (PLoS ONE, 2009).

By stoichiometry N is commonly meant the number of molecules, sites or subunits per partner or assembly.

For series [1], the target named is T1, OprM trimer, unlabeled (Pseudomonas aeruginosa, UniProt Q51487 18-485, palmitoyl moiety (said of the protein in general)).
T1 construct: OprM, outer membrane protein of the MexA-MexB-OprM efflux pump of Pseudomonas aeruginosa; also called outer membrane protein OprM; source: expressed and purified as previously described [50]; solubilized in 1% beta-octylglucoside, then inserted into the L3 sponge phase
T1 sequence: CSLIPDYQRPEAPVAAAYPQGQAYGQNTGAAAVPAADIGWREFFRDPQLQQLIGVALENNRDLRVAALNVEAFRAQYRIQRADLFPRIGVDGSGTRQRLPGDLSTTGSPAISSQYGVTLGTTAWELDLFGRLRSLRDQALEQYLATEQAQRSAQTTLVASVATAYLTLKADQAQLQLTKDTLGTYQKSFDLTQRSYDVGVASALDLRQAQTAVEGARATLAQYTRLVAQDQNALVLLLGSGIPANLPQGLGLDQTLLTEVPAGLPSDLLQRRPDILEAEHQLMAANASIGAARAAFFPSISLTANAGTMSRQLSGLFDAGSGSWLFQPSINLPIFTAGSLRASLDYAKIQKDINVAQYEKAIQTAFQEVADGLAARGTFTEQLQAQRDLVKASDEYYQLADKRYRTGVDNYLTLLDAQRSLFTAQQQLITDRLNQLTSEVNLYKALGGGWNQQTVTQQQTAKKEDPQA
Kind of series: FRAPP (fluorescence recovery after fringe pattern photobleaching); dW about 200 A, pH 7.5; OprM trimer constant at 1 uM, molar ratio r of FITC-labeled MexA to OprM trimer varied; stoichiometry from the intensity I0 of free MexA. The settings on record: both partners purified.

The target in series [2] is T1, OprM trimer, unlabeled. Kind of series: FRAPP (fluorescence recovery after fringe pattern photobleaching); as a5 (dW about 200 A, stoichiometry from free MexA intensity) but at pH 5.5. Conditions: both partners purified.
Series [3] concerns the molecule itself. The experiment in a line: FRAPP (fluorescence recovery after fringe pattern photobleaching); FITC-labeled OprM alone in the sponge phase, dW>170 A; hydrodynamic radius from the diffusion coefficient compared with crystallographic and electron microscopy data.

B1: MexA, mature form bearing a palmitoyl moiety, FITC-labeled (natural protein)
chain: CGKSEAPPPAQTPEVGIVTLEAQTVTLNTELPGRTNAFRIAEVRPQVNGIILKRLFKEGSDVKAGQQLYQIDPATYEADYQSAQANLASTQEQAQRYKLLVADQAVSKQQYADANAAYLQSKAAVEQARINLRYTKVLSPISGRIGRSAVTEGALVTNGQANAMATVQQLDPIYVDVTQPSTALLRLRRELASGQLERAGDNAAKVSLKLEDGSQYPLEGRLEFSEVSVDEGTGSVTIRAVFPNPNNELLPGMFVHAQLQEGVKQKAILAPQQGVTRDLKGQATALVVNAQNKVELRVIKADRVIGDKWLVTEGLNAGDKIITEGLQFVQPGVEVKTVPAKNVASAQKADAAPAKTDSKG
modifications: palmitoyl moiety (on the unique N-terminal cysteine); FITC label
notes: MexA, periplasmic lipoprotein of the MexA-MexB-OprM efflux pump of Pseudomonas aeruginosa, in its mature form; Found monomeric in the sponge phase; also called FITC-labeled MexA; periplasmic protein MexA; source: solubilized in 1% beta-octylglucoside, then inserted into the L3 sponge phase
Consider B1, for which the “stoichiometry N” value is 2 MexA per OprM trimer with OprM trimer, unlabeled [1] and 6 MexA per OprM trimer with OprM trimer, unlabeled [2].

B2: OprM, FITC-labeled (natural protein)
chain: CSLIPDYQRPEAPVAAAYPQGQAYGQNTGAAAVPAADIGWREFFRDPQLQQLIGVALENNRDLRVAALNVEAFRAQYRIQRADLFPRIGVDGSGTRQRLPGDLSTTGSPAISSQYGVTLGTTAWELDLFGRLRSLRDQALEQYLATEQAQRSAQTTLVASVATAYLTLKADQAQLQLTKDTLGTYQKSFDLTQRSYDVGVASALDLRQAQTAVEGARATLAQYTRLVAQDQNALVLLLGSGIPANLPQGLGLDQTLLTEVPAGLPSDLLQRRPDILEAEHQLMAANASIGAARAAFFPSISLTANAGTMSRQLSGLFDAGSGSWLFQPSINLPIFTAGSLRASLDYAKIQKDINVAQYEKAIQTAFQEVADGLAARGTFTEQLQAQRDLVKASDEYYQLADKRYRTGVDNYLTLLDAQRSLFTAQQQLITDRLNQLTSEVNLYKALGGGWNQQTVTQQQTAKKEDPQA
modifications: FITC label; palmitoyl moiety (said of the protein in general)
notes: OprM, outer membrane protein of the MexA-MexB-OprM efflux pump of Pseudomonas aeruginosa; Same protein as m2, here labeled with FITC and measured alone; also called FITC-labeled OprM; OprM trimer; source: expressed and purified as previously described [50]; labeled with FITC; inserted into the L3 sponge phase
B2: the “stoichiometry N” value in series [3] is 3.
